Reference: patent US20200199241A1 (Chugai, published 2020)

T1: FcγRIIb (human, UniProt P31994 43-217, limits assumed)
T1 construct: also called FcgRIIb; FcγIIB
T1 sequence: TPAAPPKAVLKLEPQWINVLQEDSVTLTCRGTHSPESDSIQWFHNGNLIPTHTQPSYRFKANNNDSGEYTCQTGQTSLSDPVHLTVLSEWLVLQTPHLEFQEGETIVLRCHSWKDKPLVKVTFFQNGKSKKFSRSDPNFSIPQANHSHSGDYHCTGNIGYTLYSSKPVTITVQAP

T2: FcγRIIa type H (human, UniProt P12318 36-217)
T2 construct: also called FcγRIIaH; FcγRIIH
T2 sequence: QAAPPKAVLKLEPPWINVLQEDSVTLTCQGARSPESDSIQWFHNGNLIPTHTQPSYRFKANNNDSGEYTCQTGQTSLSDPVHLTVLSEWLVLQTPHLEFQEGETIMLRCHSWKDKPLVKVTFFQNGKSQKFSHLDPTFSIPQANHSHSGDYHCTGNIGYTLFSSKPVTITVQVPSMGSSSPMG

T3: FcγRIIa type R (human, UniProt P12318 36-217)
T3 construct: also called FcγRIIaR; FcgRIIaR
T3 chain: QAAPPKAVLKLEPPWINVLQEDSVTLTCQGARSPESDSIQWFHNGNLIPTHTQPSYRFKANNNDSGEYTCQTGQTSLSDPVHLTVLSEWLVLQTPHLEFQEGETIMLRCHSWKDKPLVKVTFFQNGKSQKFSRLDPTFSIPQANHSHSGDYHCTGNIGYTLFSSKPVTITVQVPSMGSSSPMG

T4: FcγRIIb (human, UniProt P31994 43-217, limits assumed)
T4 construct: also called FcγIIB; CD32
T4 sequence: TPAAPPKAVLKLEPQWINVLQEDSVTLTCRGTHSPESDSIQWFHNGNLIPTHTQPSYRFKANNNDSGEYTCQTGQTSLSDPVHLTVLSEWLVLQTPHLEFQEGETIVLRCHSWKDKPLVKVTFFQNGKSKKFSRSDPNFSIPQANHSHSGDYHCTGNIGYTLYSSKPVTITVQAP

T5: FcγRIIa type R (human, UniProt P12318 36-217)
T5 construct: also called FcγRIIaR; FcγRIIa(R)
T5 chain: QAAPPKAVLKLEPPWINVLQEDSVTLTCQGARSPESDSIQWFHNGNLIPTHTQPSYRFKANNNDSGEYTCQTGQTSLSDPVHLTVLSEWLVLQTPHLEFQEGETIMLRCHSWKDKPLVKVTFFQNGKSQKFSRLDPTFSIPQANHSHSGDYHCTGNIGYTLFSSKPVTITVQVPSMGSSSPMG

T6: FcγRIIa type H (human, UniProt P12318 36-217)
T6 construct: also called FcγRIIaH; FcγRIIa(H)
T6 sequence: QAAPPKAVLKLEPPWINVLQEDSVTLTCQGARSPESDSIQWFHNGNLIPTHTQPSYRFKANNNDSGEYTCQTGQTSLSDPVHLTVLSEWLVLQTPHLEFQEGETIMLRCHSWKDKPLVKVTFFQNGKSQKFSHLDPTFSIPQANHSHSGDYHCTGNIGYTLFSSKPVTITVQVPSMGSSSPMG


Legend:
FcγRIIb [1] = molecular target: T1, FcγRIIb; experiment: SPR (Biacore), FcγR over captured antibody
FcγRIa [2] = molecular target: T7, FcγRIa (human, UniProt P12314 16-292, limits assumed); experiment: SPR (Biacore), FcγR over captured antibody
T7 construct: also called FcgRIa; CD64
T7 sequence (P12314 16-292 limits assumed): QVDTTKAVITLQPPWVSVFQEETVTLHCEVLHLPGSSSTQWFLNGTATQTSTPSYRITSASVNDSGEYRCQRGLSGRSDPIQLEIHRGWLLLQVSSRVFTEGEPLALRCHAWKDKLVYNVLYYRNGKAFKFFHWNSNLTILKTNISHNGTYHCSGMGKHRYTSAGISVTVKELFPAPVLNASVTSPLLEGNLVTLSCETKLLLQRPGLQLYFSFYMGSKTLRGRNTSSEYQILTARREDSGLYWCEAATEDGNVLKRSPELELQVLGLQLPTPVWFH

FcγRIIa type H [3] = molecular target: T2, FcγRIIa type H; experiment: SPR (Biacore), FcγR over captured antibody
FcγRIIa type R [4] = molecular target: T3, FcγRIIa type R; experiment: SPR (Biacore), FcγR over captured antibody
FcγRIIIa type V [5] = molecular target: T8, FcγRIIIa type V (human, UniProt P08637 17-208, limits assumed); experiment: SPR (Biacore), FcγR over captured antibody
T8 construct: also called FcγRIIIaV; FcgRIIIaV
T8 sequence (P08637 other isoform, or with tags, fused parts or gaps limits assumed): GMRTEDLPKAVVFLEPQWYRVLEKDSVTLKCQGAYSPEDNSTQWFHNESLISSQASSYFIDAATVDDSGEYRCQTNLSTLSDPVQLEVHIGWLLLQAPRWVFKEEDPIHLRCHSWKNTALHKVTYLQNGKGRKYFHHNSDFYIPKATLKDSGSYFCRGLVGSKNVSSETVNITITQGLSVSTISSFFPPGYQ

FcγRIIb [6] = molecular target: T4, FcγRIIb; experiment: ratio of SPR KD values, parent IL6R-B3/IL6R-L
Text: (§1) Furthermore, KD(IIaR)/KD(IIb) and KD(IIaH)/KD(IIb) in the table respectively represent the value obtained by dividing the KD value of each variant for FcγRIIaR by the KD value of each variant for FcγRIIb, and the value obtained by dividing the KD value of each variant for FcγRIIaH by the KD value of each variant for FcγRIIb. KD(IIb) of the parent polypeptide/KD(IIb) of the altered polypeptide refers to the value obtained by dividing the KD value of the parent polypeptide for FcγRIIb by the KD value of each variant for FcγRIIb.

FcγRIIb [7] = molecular target: T4, FcγRIIb; experiment: SPR (Biacore); KD for FcγRIIaH divided by KD for FcγRIIb of the same antibody; column head in Table 52-1
Text: as §1

FcγRIIa type R [8] = molecular target: T5, FcγRIIa type R; experiment: SPR (Biacore), method of Example 14
Text: as §1

FcγRIIa type H [9] = molecular target: T6, FcγRIIa type H; experiment: SPR (Biacore), method of Example 14
Text: as §1

FcγRIIb [10] = molecular target: T4, FcγRIIb; experiment: SPR (Biacore), method of Example 14
Text: as §1

FcγRIIIa type V [11] = molecular target: T9, FcγRIIIa type V (human, UniProt P08637 17-208, limits assumed); experiment: SPR (Biacore), method of Example 14
T9 construct: also called FcγRIIIaV; FcγRIIIa(V)
T9 sequence (P08637 17-208 F176V limits assumed): as the sequence (P08637 other isoform, or with tags, fused parts or gaps limits assumed) above, with S179A counted along it
Text: as §1

FcγRIa [12] = molecular target: T10, FcγRIa (human, UniProt P12314 16-292, limits assumed); experiment: SPR (Biacore), method of Example 14
T10 construct: also called CD64
T10 sequence (P12314 16-292 limits assumed): as the sequence (P12314 16-292 limits assumed) above
Text: as §1

FcγRIIb [13] = molecular target: T4, FcγRIIb; experiment: SPR (Biacore); KD for FcγRIIaR divided by KD for FcγRIIb of the same antibody; column head in Table 52-1
Text: as §1

| Kd (FcγRIIb [1]) [µM] | Kd (FcγRIa [2]) [µM] | Kd (FcγRIIa type H [3]) [µM] | Kd (FcγRIIa type R [4]) [µM] | Kd (FcγRIIIa type V [5]) [µM] | KD(IIb) of the parent polypeptide/KD(IIb) of altered polypeptide (FcγRIIb [6]) [fold] | KD(IIaH)/KD(IIb) (FcγRIIb [7]) | Kd (FcγRIIa type R [8]) [µM] | Kd (FcγRIIa type H [9]) [µM] | Kd (FcγRIIb [10]) [µM] | Kd (FcγRIIIa type V [11]) [µM] | Kd (FcγRIa [12]) [µM] | KD(IIaR)/KD(IIb) (FcγRIIb [13]) | Binder |
| --- | --- | --- | --- | --- | --- | --- | --- | --- | --- | --- | --- | --- | --- |
| 0.32 | 0.0065 | 35 | 3.5 | 69 | – | – | – | – | – | – | – | – | IL6R-BP112/IL6R-L (antibody, human IgG1, IgG1; Fc variant of IL6R-B3; copies: 2 + 2) heavy: QVQLQESGPGLVKPSETLSLTCAVSGHSISHDHAWSWVRQPPGEGLEWIGFISYSGITNYNPSLQGRVTISRDNSKNTLYLQMNSLRAEDTAVYYCARSLARTTAMDYWGEGTLVTVSSASTKGPSVFPLAPSSKSTSGGTAALGCLVKDYFPEPVTVSWNSGALTSGVHTFPAVLQSSGLYSLSSVVTVPSSSLGTQTYICNVNHKPSNTKVDKKVEPKSCDKTHTCPPCPAPELLGGDSVFLFPPKPKDTLMISRTPEVTCVVVDVSHEDGEVKFNWYVDGVEVHNAKTKPREEQYNSTYRVVSVLTVLHQDWLNGKEYKCKVSNKALPAPIEKTISKAKGQPREPQVYTLPPSRDELTKNQVSLTCLVKGFYPSDIAVEWESNGQPENNYKTTPPVLDSDGSFFLYSKLTVDKSRWQQGNVFSCSVMHEALHNHYTQESLSLSP light: DIQMTQSPSSLSASVGDRVTITCRASQDISSYLNWYQQKPGKAPKLLIYYTSRLHSGVPSRFSGSGSGTDFTFTISSLQPEDIATYYCQQGNTLPYTFGQGTKVEIK |
| – | – | – | – | – | 21.2 | 185 | 3 | 27 | 0.15 | 49 | 0.004 | 20.3 | IL6R-BP191/IL6R-L (antibody, human IgG1, Anti-IL-6R human IgG1 variant; copies: 2 + 2) heavy: QVQLQESGPGLVKPSETLSLTCAVSGHSISHDHAWSWVRQPPGEGLEWIGFISYSGITNYNPSLQGRVTISRDNSKNTLYLQMNSLRAEDTAVYYCARSLARTTAMDYWGEGTLVTVSSASTKGPSVFPLAPSSKSTSGGTAALGCLVKDYFPEPVTVSWNSGALTSGVHTFPAVLQSSGLYSLSSVVTVPSSSLGTQTYICNVNHKPSNTKVDKKVEPKSCDKTHTCPPCPAPDLLGGDSVFLFPPKPKDTLMISRTPEVTCVVVDVSDEDGEVKFNWYVDGVEVHNAKTKPREEQYNSTYRVVSVLTVLHQDWLNGKEYKCKVSNAALPKPIEKTISKAKGQPREPQVYTLPPSRDELTKNQVSLTCLVKGFYPSDIAVEWESNGQPENNYKTTPPVLDSDGSFFLYSKLTVDKSRWQQGNVFSCSVMHEALHNHYTQESLSLSP light: DIQMTQSPSSLSASVGDRVTITCRASQDISSYLNWYQQKPGKAPKLLIYYTSRLHSGVPSRFSGSGSGTDFTFTISSLQPEDIATYYCQQGNTLPYTFGQGTKVEIK |
| 0.8 | 0.0041 | 41 | 9.2 | 67 | – | – | – | – | – | – | – | – | IL6R-BP117/IL6R-L (antibody, human IgG1, IgG1; Fc variant of IL6R-B3; copies: 2 + 2) heavy: QVQLQESGPGLVKPSETLSLTCAVSGHSISHDHAWSWVRQPPGEGLEWIGFISYSGITNYNPSLQGRVTISRDNSKNTLYLQMNSLRAEDTAVYYCARSLARTTAMDYWGEGTLVTVSSASTKGPSVFPLAPSSKSTSGGTAALGCLVKDYFPEPVTVSWNSGALTSGVHTFPAVLQSSGLYSLSSVVTVPSSSLGTQTYICNVNHKPSNTKVDKKVEPKSCDKTHTCPPCPAPELLGGDSVFLFPPKPKDTLMISRTPEVTCVVVDVSHEDPEVKFNWYVDGVEVHNAKTKPREEQYNSTYRVVSVLTVLHQDWLNGKEYKCKVSNDALPAPIEKTISKAKGQPREPQVYTLPPSRDELTKNQVSLTCLVKGFYPSDIAVEWESNGQPENNYKTTPPVLDSDGSFFLYSKLTVDKSRWQQGNVFSCSVMHEALHNHYTQESLSLSP light: DIQMTQSPSSLSASVGDRVTITCRASQDISSYLNWYQQKPGKAPKLLIYYTSRLHSGVPSRFSGSGSGTDFTFTISSLQPEDIATYYCQQGNTLPYTFGQGTKVEIK |
